Data published in paper PMC6294562.

Biological target: thrombin (alpha-thrombin) (UniProt P00734;P00734 328-363;364-622)
Test: X-ray crystallography

Q: Does CGCCTAGGTTGGGTAGGGTGGTGGCG (structured_DNA) [NU172 (ARC2172)] bind?
A: Result: binds
